Consider 1 molecule from PMC11573672, “Analysis of the structure and interactions of the SARS-CoV-2 ORF7b accessory protein” (Proceedings of the National Academy of Sciences of the …, 2024).

The experiment addresses T1, SARS-CoV-2 ORF7b accessory protein, full length, with C-terminal SA linker and Strep-tag II (SARS-CoV-2, UniProt P0DTD8 1-43).
T1 construct: ORF7b of SARS-CoV-2, 43 residues, full length; NMR samples are isotope labelled on chosen amino acids (Leu, Phe and others); Forms heterogeneous multimers; no defined number of copies; also called ORF7b-ST; ORF7b^L:F; not shown: Strep-tag II, C-terminal, kept
T1 chain: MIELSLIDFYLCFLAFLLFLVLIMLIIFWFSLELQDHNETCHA
Nature of the experiment: solid-state NMR (2D hChH reverse-MIRROR, intermolecular polarization transfer). Particulars: both partners purified.

B1: E-cadherin transmembrane domain (E641-R673), purified, Leu-labelled, for solid-state NMR (domain or fragment, human, UniProt P12830-2 641-673, looked up)
chain: EAGLQIPAILGILGGILALLILILLLLLFLRRR
notes: also called E-cadTM; E-cadTM^L; source: wheat-germ cell-free synthesis, purified
Consider B1, for which the binding result is “binds”.
